Measurements taken from IntAct's records for PubMed 14675534.

B1: Partitioning defective protein 3 (Caenorhabditis elegans), Q17353 (parent)
chain: MSASSTSSSSTSCPEGGEPSGSCKSSDEGESTLKKRMQQYGIASGYANSSISTLDRSQYQSLPLNGTRRVTVQFGRMKIVVPWKESDQTVGQLADAALLRYKKARGMANEDRIHVHRLECASDGGILDMDDVLEEVFDLNYDQILAITDEANGGSTTPTYSQIQKQQHHYAQPLPYARKFDGGPSTPIASAFGSVTVNHQAHRAASPYNVGFARSNSRDFAPQPTHSKERRDSVVEVSSFDQIPQSGLRVSTPKPSRQSEDVIDGKPMNQPILRSSLRTEASGSRTEEATPVKQSRVTLSPEVEKKLAEQDERKSERRKHYDKNPGRFARGSDRKSRITDALLDARDRIADQLESQNPAEETKSQMIRVKIDQGPMPGTSLVTFPPIPEKSENEKQLGIEVNAVFDESSELPGTSEPTKLSSVQIMKIEDGGRIAKDGRIRVGDCIVAIDGKPVDQMSIIRVRASISDLAAVTSRPVTLIINRSLESFLEQESSAKPIQSALQQANTQYIGHTTVVELIKSSNGFGFTVTGRETAKGERLFYIGTVKPYGVALGHLKSGDRLLEINGTPTGQWTQSEIVEKLKETMVGEKIKFLVSRVSQSAIMSTSASSENKENEETLKVVEEEKIPQKLPLPALMTPPVPKDTPALSPSGASRFEIVIPFINGSSSAGLGVSLKARVSKKSNGSKVDCGIFIKNVMHGGAAFKEGGLRVDDRIVGVEDIDLEPLDNREAQAALAKKLKEVGMISSNVRLTISRYNECNPGQISRDLSRITVDASSPSPSSRMSSHTAPDSLLPSPATRGTSSSGADSSHSRQSSASSAVPAVPARLTERDSIVSDGTSRNDESELPDSADPFNREGLGRKSLSEKRGMGAAADPQHIKLFQDIKHQRQNSAPTSSTQKRSKSQPRSSSQRNYRSPMKLVDLPTTAAASASTNSQNLDDSDMLNRRSQSMESINRPVESILRGTGQIPTGSSSKVQFMQAASPDQHPFPPGAALLRLKNEESRSRDKSRRKSMGNPFSAMRNFFGFGSKSRDASPEKTPTESVQLRSVERPKSIIDERNNGSSERAPPPLPPHQSQRRGSGGNVFVDYGEPYGLIPQYPHNTTSGYESYADSELYDRYAAHRYHPRGGPIIDEDEYIYRQQSTSGNSPINTSSYVNYGLPASNAYHVGSRIPPQTSSGSISKTSGAMRRVYPAEYDEDVAYHQQIPQQSTRYQQGSGSGRGNADYHHMFNSWFAYTGGGAVGAAPVIKSSYGSSPVRIAAASAIERGESFVVEPVSGSSASATDRRGRSTSSGAVASGSSSTGFQYAAKEKYADARSGKFNGGSTRLFIPRHGGGLSAAAFATNFGGEAYETRGGGAGGSPSQYRRRDQGPPHRFPQY
partner: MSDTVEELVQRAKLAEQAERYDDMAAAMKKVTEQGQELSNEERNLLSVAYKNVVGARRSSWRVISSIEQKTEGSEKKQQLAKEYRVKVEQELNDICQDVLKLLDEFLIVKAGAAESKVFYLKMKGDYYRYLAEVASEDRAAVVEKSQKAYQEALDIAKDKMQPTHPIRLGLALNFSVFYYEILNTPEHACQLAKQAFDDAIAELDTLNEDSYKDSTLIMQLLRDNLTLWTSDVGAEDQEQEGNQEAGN

Variants of: B1
Conditions: with 14331_caeel par-5, P41932

effect of a mutation on the interaction | Variant
decreasing interaction | S960A
